The text below walks through data of patent US20240261333A1, “NOVEL TARGETS FOR ENHANCING ANTI-TUMOR IMMUNITY” (THE BROAD INSTITUTE, INC., priority 2021, published 2024).

This assay deals with T1, B3GNT2 (Homo sapiens, UniProt Q9NY97).
T1 construct: The respective ORFs of candidate genes [CD274 (NM_014143), MCL1 (NM_021960), JUNB (NM_002229), and B3GNT2 (NM_006577)] were synthesized; expressed in transfected cells; host or cells: A375 melanoma cells (lentiviral ORF overexpression)
T1 sequence (Q9NY97 1-397): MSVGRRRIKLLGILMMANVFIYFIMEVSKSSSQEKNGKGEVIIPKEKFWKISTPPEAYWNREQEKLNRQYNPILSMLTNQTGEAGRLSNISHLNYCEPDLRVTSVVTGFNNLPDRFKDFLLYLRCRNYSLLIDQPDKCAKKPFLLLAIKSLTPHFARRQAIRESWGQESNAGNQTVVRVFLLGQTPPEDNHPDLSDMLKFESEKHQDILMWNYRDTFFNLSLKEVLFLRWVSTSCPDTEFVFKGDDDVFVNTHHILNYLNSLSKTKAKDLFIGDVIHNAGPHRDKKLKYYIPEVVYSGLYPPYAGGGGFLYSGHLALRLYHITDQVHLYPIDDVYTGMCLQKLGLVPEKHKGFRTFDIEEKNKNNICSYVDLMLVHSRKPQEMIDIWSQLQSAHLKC
In words: Co-IP of FLAG-tagged B3GNT2 followed by mass spectrometry. It counts as cell-based. Further details: C-term IgG / C-term flag: unit not given here. The note with it: Co-IP followed by mass spectrometry of B3GNT2; for C-term flag / C-term IgG: C-term tag; for C-term flag / N-term FLAG: FLAG pull-down; for C-term IgG / N-term IgG: IgG pull-down; for N-term FLAG / N-term IgG: N-term tag. As to the method: Cells were plated in 10-cm cell culture dishes and grown to 60-80% confluency. For each condition, two biological replicates were harvested for co-IP. Cells were washed with PBS and 4 mL of lysis buffer (20 mM HEPES, 1% Triton X-100, 150 mM NaCl, 1 mM EDTA, and 10% glycerol) containing protease inhibitor cocktail was added. Cells were scraped and lysate was incubated at 4° C. under rotary agitation for 1 h. Lysate was centrifuged at 14,000×g for 10 min at 4° C. Supernatant was transferred to a new tube and an aliquot was taken as the input. […] For Western blots, 10 μg/mL Chicken Anti-FLAG (Aves labs ET-DY100) and IgY control (R&D Systems AB-101-C) antibodies were biotinylated (Thermo Fisher Scientific 90407) and added to the respective conditions. Lysates with antibodies were incubated at 4° C. under rotary agitation overnight. For each mL of lysate, 50 μL of Pierce Protein A/G Magnetic Beads (Mass spectrometry; Thermo Fisher Scientific 88803) or Pierce Streptavidin Magnetic Beads (Western blot; Thermo Fisher Scientific 88817) was washed twice with lysis buffer. Lysates with antibodies were added to the beads and incubated at 4° C. under rotary agitation for 4 h. Beads were washed with lysis buffer 3 times and resuspended in lysis buffer for storage. […] This solution was subjected to solid phase extraction to concentrate the peptides and remove unwanted reagents followed by injection onto a Shimadzu HPLC with fraction collector. Eight fractions were collected and after concentration were injected on a Waters NanoAcquity HPLC equipped with a self-packed Aeris 3 μm C18 analytical column 0.075 mm by 20 cm, (Phenomenex). Peptides were eluted using standard reverse-phase gradients. The effluent from the column was analyzed using a Thermo Orbitrap Elite mass spectrometer (nanospray configuration) operated in a data dependent manner for 54 minutes. […] Scaffold Q+S (Proteome Software) was used to provide consensus reports for the identified proteins.

B1: IMMT (protein)
chain: STSGSSGLTTGKIAGAGLLFVGGGIGGTILYAKWDSHFRESVEKTIPYSDKLFEMVLGPAAYNVPLPKKSIQSGPLKISSVSEVMKESKQPASQLQKQKGDTPASATAPTEAAQIISAAGDTLSVPAPAVQPEESLKTDHPEIGEGKPTPALSEASSSSIRERPPEEVAARLAQQEKQEQVKIESLAKSLEDALRQTASVTLQAIAAQNAAVQAVNAHSNILKAAMDNSEIAGEKKSAQWRTVEGALKERRKAVDEAADALLKAKEELEKMKSVIENAKKKEVAGAKPHITAAEGKLHNMIVDLDNVVKKVQAAQSEAKVVSQYHELVVQARDDFKRELDSITPEVLPGWKGMSVSDLADKLSTDDLNSLIAHAHRRIDQLNRELAEQKATEKQHITLALEKQKLEEKRAFDSAVAKALEHHRSEIQAEQDRKIEEVRDAMENEMRTQLRRQAAAHTDHLRDVLRVQEQELKSEFEQNLSEKLSEQELQFRRLSQEQVDNFTLDINTAYARLRGIEQAVQSHAVAEEEARKAHQLWLSVEALKYSMKTSSAETPTIPLGSAVEAIKANCSDNEFTQALTAAIPPESLTRGVYSEETLRARFYAVQKLARRVAMIDETRNSLYQYFLSYLQSLLLFPPQQLKPPPELCPEDINTFKLLSYASYCIEHGDLELAAKFVNQLKGESRRVAQDWLKEARMTLETKQIVEILTAYASAVGIGTTQVQPE
Consider B1, for which the C-term flag is given as 26, the “C-term IgG” value came to 16, the “N-term FLAG” value is 23 and the “N-term IgG” value is given as 17.

B2: TXN (protein)
chain: VKQIESKTAFQEALDAAGDKLVVVDFSATWCGPCKMIKPFFHSLSEKYSNVIFLEVDVDDCQDVASECEVKCMPTFQFFKKGQKVGEFSGANKEKLEATINELV
For the molecule B2, the C-term flag is reported as 3, the “C-term IgG” value amounted to 0, the “N-term FLAG” value was 3 and the “N-term IgG” value is on record as 3.

B3: PBXIP1 (protein)
chain: MDPESERALQAPHSPSKTDGKELAGTMDGEGTLFQTESPQSGSILTEETEVKGTLEGDVCGVEPPGPGDTVVQGDLQETTVVTGLGPDTQDLEGQSPPQSLPSTPKAAWIREEGRCSSSDDDTDVDMEGLRRRRGREAGPPQPMVPLAVENQAGGEGAGGELGISLNMCLLGALVLLGLGVLLFSGGLSESETGPMEEVERQVLPDPEVLEAVGDRQDGLREQLQAPVPPDSVPSLQNMGLLLDKLAKENQDIRLLQAQLQAQKEELQSLMHQPKGLEEENAQLRGALQQGEAFQRALESELQQLRARLQGLEADCVRGPDGVCLSGGRGPQGDKAIREQGPREQEPELSFLKQKEQLEAEAQALRQELERQRRLLGSVQQDLERSLQDASRGDPAHAGLAELGHRLAQKLQGLENWGQDPGVSANASKAWHQKSHFQNSREWSGKEKWWDGQRDRKAEHWKHKKEESGRERKKNWGGQEDREPAGRWKEGRPRVEESGSKKEGKRQGPKEPPRKSGSFHSSGEKQKQPRWREGTKDSHDPLPSWAELLRPKYRAPQGCSGVDECARQEGLTFFGTELAPVRQQELASLLRTYLARLPWAGQLTKELPLSPAFFGEDGIFRHDRLRFRDFVDALEDSLEEVAVQQTGDDDEVDDFEDFIFSHFFGDKALKKRSGKKDKHSQSPRAAGPREGHSHSHHHHHRG
For B3, the C-term flag is recorded as 4, the “C-term IgG” value amounted to 0, the “N-term FLAG” value is 2 and the “N-term IgG” value was 0.

B4: TAGLN (protein)
chain: ANKGPSYGMSREVQSKIEKKYDEELEERLVEWIIVQCGPDVGRPDRGRLGFQVWLKNGVILSKLVNSLYPDGSKPVKVPENPPSMVFKQMEQVAQFLKAAEDYGVIKTDMFQTVDLFEGKDMAAVQRTLMALGSLAVTKNDGHYRGDPNWFMKKAQEHKREFTESQLQEGKHVIGLQMGSNRGASQAGMTGYGRPRQIIS
For B4, the C-term flag is recorded as 3, the “C-term IgG” value was 0, the “N-term FLAG” value came out at 2 and the “N-term IgG” value is 0.

B5: POF1B (protein)
chain: MSSSYWSETSSSSCGTQQLPEVLQCQPQHYHCYHQSSQAQQPPEKNVVYERVRTYSGPMNKVVQALDPFNSREVLSPLKTTSSYQNLVWSDHSQELHSPTLKISTCAPSTLHITQNTEQELHSPTVKLTTYPQTTIRKYVVQNPEQEPLSQFLRGSHFFPGNNVIYEKTIRKVEKLNTDQGCHPQAQCHHHIIQQPQVIHSAHWQQPDSSQQIQAITGNNPISTHIGNELCHSGSSQICEQVIIQDDGPEKLDPRYFGELLADLSRKNTDLYHCLLEHLQRIGGSKQDFESTDESEDIESLIPKGLSEFTKQQIRYILQMRGMSDKSLRLVLSTFSNIREELGHLQNDMTSLENDKMRLEKDLSFKDTQLKEYEELLASVRANNHQQQQGLQDSSSKCQALEENNLSLRHTLSDMEYRLKELEYCKRNLEQENQNLRMQVSETCTGPMLQAKMDEIGNHYTEMVKNLRMEKDREICRLRSQLNQYHKDVSKREGSCSDFQFKLHELTSLLEEKDSLIKRQSEELSKLRQEIYSSHNQPSTGGRTTITTKKYRTQYPILGLLYDDYEYIPPGSETQTIVIEKTEDKYTCVSSLGHF
For B5, the C-term flag was 0, the “C-term IgG” value is 0, the “N-term FLAG” value is listed as 5 and the “N-term IgG” value was 0.

B6: CDSN (protein)
chain: KSIGTFSDPCKDPTRITSPNDPCLTGKGDSSGFSSYSGSSSSGSSISSARSSGGGSSGSSSGSSIAQGGSAGSFKPGTGYSQVSYSSGSGSSLQGASGSSQLGSSSSHSGNSGSHSGSSSSHSSSSSSFQFSSSSFQVGNGSALPTNDNSYRGILNPSQPGQSSSSSQTFGVSSSGQSVSSNQRPCSSDIPDSPCSGGPIVSHSGPYIPSSHSVSGGQRPVVVVVDQHGSGAPGVVQGPPCSNGGLPGKPCPPITSVDKSYGGYEVVGGSSDSYLVPGMTYSKGKIYPVGYFTKENPVKGSPGVPSFAAGPPISEGKYFSSNPIIPSQSAASSAIAFQPVGTGGVQLCGGGSTGSKGPCSPSSSRVPSSSSISSSSGLPYHPCGSASQSPCSPPGTGSFSSSSSSQSSGKIILQPCGSKSSSSGHPCMSVSSLTLTGGPDGSPHPDPSAGAKPCGSSSAGKIPCRSIRDILAQVKPLGPQLADPEVFLPQGELLNSP
On to B6, for which the C-term flag is recorded as 0, the “C-term IgG” value turned out to be 0, the “N-term FLAG” value is 5 and the “N-term IgG” value was determined as 0.

B7: IL13RA2 (protein)
chain: DTEIKVNPPQDFEIVDPGYLGYLYLQWQPPLSLDHFKECTVEYELKYRNIGSETWKTIITKNLHYKDGFDLNKGIEAKIHTLLPWQCTNGSEVQSSWAETTYWISPQGIPETKVQDMDCVYYNWQYLLCSWKPGIGVLLDTNYNLFYWYEGLDHALQCVDYIKADGQNIGCRFPYLEASDYKDFYICVNGSSENKPIRSSYFTFQLQNIVKPLPPVYLTFTRESSCEIKLKWSIPLGPIPARCFDYEIEIREDDTTLVTATVENETYTLKTTNETRQLCFVVRSKVNIYCSDDGIWSEWSDKQCWEGEDLSKKTLLRFWLPFGFILILVIFVTGLLLRKPNTYPKMIPEFFCDT
As for B7, the C-term flag was 2, the “C-term IgG” value is given as 0, the “N-term FLAG” value was 3 and the “N-term IgG” value is on record as 0.

B8: KCTD5 (protein)
chain: AENHCELLSPARGGIGAGLGGGLCRRCSAGLGALAQRPGSVSKWVRLNVGGTYFLTTRQTLCRDPKSFLYRLCQADPDLDSDKDETGAYLIDRDPTYFGPVLNYLRHGKLVINKDLAEEGVLEEAEFYNITSLIKLVKDKIRERDSKTSQVPVKHVYRVLQCQEEELTQMVSTMSDGWKFEQLVSIGSSYNYGNEDQAEFLCVVSKELHNTPYGTASEPSEKAKILQERGSRM
Turning to B8, the C-term flag was 3, the “C-term IgG” value is 0, the “N-term FLAG” value turned out to be 2 and the “N-term IgG” value was found to be 0.
